B1: Rho guanine nucleotide exchange factor 1 (Homo sapiens), Q92888 (parent)
chain: MEDFARGAASPGPSRPGLVPVSIIGAEDEDFENELETNSEEQNSQFQSLEQVKRRPAHLMALLQHVALQFEPGPLLCCLHADMLGSLGPKEAKKAFLDFYHSFLEKTAVLRVPVPPNVAFELDRTRADLISEDVQRRFVQEVVQSQQVAVGRQLEDFRSKRLMGMTPWEQELAQLEAWVGRDRASYEARERHVAERLLMHLEEMQHTISTDEEKSAAVVNAIGLYMRHLGVRTKSGDKKSGRNFFRKKVMGNRRSDEPAKTKKGLSSILDAARWNRGEPQVPDFRHLKAEVDAEKPGATDRKGGVGMPSRDRNIGAPGQDTPGVSLHPLSLDSPDREPGADAPLELGDSSPQGPMSLESLAPPESTDEGAETESPEPGDEGEPGRSGLELEPEEPPGWRELVPPDTLHSLPKSQVKRQEVISELLVTEAAHVRMLRVLHDLFFQPMAECLFFPLEELQNIFPSLDELIEVHSLFLDRLMKRRQESGYLIEEIGDVLLARFDGAEGSWFQKISSRFCSRQSFALEQLKAKQRKDPRFCAFVQEAESRPRCRRLQLKDMIPTEMQRLTKYPLLLQSIGQNTEEPTEREKVELAAECCREILHHVNQAVRDMEDLLRLKDYQRRLDLSHLRQSSDPMLSEFKNLDITKKKLVHEGPLTWRVTKDKAVEVHVLLLDDLLLLLQRQDERLLLKSHSRTLTPTPDGKTMLRPVLRLTSAMTREVATDHKAFYVLFTWDQEAQIYELVAQTVSERKNWCALITETAGSLKVPAPASRPKPRPSPSSTREPLLSSSENGNGGRETSPADARTERILSDLLPFCRPGPEGQLAATALRKVLSLKQLLFPAEEDNGAGPPRDGDGVPGGGPLSPARTQEIQENLLSLEETMKQLEELEEEFCRLRPLLSQLGGNSVPQPGCT

In one assay the parent is B1. The note with it: with gna13_human GNA13, Q14344.
Chain of gna13_human GNA13, Q14344 (Q14344 whole entry): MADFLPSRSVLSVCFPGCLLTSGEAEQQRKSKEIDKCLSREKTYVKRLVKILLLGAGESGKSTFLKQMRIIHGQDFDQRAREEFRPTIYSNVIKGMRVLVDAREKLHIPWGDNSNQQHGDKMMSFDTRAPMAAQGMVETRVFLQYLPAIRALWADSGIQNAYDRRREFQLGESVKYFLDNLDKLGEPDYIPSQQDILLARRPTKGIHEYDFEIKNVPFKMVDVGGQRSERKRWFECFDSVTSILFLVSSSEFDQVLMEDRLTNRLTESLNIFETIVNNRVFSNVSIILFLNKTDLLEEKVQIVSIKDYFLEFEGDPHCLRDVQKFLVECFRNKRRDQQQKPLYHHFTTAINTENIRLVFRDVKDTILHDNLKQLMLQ
E27A;E29A: the “effect of a mutation on the interaction” value is recorded as “decreasing interaction”.

The variants in a further assay derive from B1. The note with it: with gna13_human GNA13, Q14344. The source holds these as a separate data set.
As to E27A;E29A, the “effect of a mutation on the interaction” value is listed as “decreasing interaction”.
